Source: patent US20220380471A1 (US Dept. of Health and Human Services, published 2022)
Numbering of substitutions follows the chain as printed.

B1: RWH1 (VHH)
VHH: AVQLVESGGGSVQAGGSLRLSCAASGMNLDNYVRGWLRQAPGSKCEFVSIIRRDGTTDYGDSVKGRFTISRDNAKNTVYLQMNSLKPDDTAVYYCAAIVVPRAAEYACDGLPYRGQGTQVTVSS
notes: Camel VHH; tag not described; also called camel antibody RWH1
B2: RWH5 (VHH)
VHH: AVQLVESGGGSVQAGGSLRLSCKASGYCMGWFRQAPGKEREGVAALNTEGGVTYYADSVKGRFSISRDNTNLYLQMNSLKPEDTAIYYCAADDRPTRCAVGSLYLPYTYRGQGTQVTVSS
notes: Camel VHH; tag not described; also called RWHS [sic]; camel antibody RWH5
B3: RWC3 (VHH)
VHH: QVQLVESGGGLVQPGGSLSVSCAASGFTFSVYWFYWVRQAPRQGLEWVSTIASNGSTYYSDSVKGRFTISRDNAKNTVYLQMNSLKPEDTAVYYCVSDPDYYSDYERAYKFWAQGTQVTVSS
notes: Camel VHH; tag not described; also called camel antibody RWC3
B4: RWD5 (VHH)
VHH: B3 VHH with Q1A, A108E
notes: Camel VHH; tag not described; also called RWDS [sic]; camel antibody RWD5
B5: RWD9 (VHH)
VHH: B3 VHH with Q1E
notes: Camel VHH; tag not described; also called camel antibody RWD9
B6: RFA1 (other)
VH: QSLEESGGGLVTPGGTLTLTCTVSGFSLSSYGMSWVRQAPGKGLEWIGSMANNGDPYYASWAKGRFTISKTSTTVDLKITSPTTEDTATYFCVRAPWGSHSMWGPGTLVTVSSGGGGSGGGGSGGGGSDPVLTQTAGGGTNVEIK
notes: Rabbit VH single-domain antibody expressed in E. coli as VH-His-FLAG fusion; also called rabbit antibody RFA1; Al [sic]; not shown: 6x His tag and FLAG tag at the C-terminus

What was measured:
[1] = target: T1, recombinant human B7H3-Fc protein (human, UniProt Q5ZPR3 29-466, limits assumed); test: phage ELISA
T1 construct: 154 kDa non-reduced, 77 kDa reduced; also called hB7H3-Fc; not shown: Fc part
T1 sequence (looked up): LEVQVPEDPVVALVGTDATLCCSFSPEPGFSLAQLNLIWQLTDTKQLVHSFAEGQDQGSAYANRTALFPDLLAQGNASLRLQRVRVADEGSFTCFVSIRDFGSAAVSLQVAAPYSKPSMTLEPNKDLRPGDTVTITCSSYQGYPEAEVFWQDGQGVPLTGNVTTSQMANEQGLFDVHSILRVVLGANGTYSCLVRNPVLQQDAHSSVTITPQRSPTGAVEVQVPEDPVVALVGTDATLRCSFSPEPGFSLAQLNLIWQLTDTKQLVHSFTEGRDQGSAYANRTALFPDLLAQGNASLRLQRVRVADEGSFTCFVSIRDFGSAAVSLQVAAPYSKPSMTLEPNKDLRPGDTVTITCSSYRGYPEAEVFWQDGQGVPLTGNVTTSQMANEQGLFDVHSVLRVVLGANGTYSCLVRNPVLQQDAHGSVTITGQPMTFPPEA
How it was run: (§1)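 Camel VHH phage were panned on recombinant B7H3-Fc protein for 3 rounds, using libraries from eight individual camels. Binding of the selected phage to immobilised antigens (human and other-species B7H3 or control proteins) was measured by phage ELISA and recorded as the ELISA signal.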

[2] = target: IgG control; test: phage ELISA
How it was run: as §1

[3] = target: T2, monkey B7H3-His (monkey); test: ELISA, purified VHH
T2 chain: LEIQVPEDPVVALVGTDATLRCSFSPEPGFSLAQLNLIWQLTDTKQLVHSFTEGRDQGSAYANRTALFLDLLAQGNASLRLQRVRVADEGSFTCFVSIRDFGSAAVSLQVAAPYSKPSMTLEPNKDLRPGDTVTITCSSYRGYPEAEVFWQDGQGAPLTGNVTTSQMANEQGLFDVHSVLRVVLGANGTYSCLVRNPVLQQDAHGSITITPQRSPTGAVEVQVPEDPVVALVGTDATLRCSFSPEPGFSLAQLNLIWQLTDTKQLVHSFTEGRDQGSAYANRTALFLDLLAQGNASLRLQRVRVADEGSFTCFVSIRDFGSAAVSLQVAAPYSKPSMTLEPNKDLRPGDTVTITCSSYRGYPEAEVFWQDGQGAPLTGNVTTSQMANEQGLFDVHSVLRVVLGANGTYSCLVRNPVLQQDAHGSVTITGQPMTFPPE
How it was run: (§2)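 The values are ELISA signals for binding of purified camel VHH nanobodies to immobilised recombinant B7H3 fusion proteins and to non-B7H3 comparison proteins. The nanobodies came from phage panning on recombinant B7H3-Fc.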

[4] = target: T1, recombinant human B7H3-Fc protein; test: ELISA, purified VHH
How it was run: as §2

[5] = target: T3, hB7H3-His (human, UniProt Q5ZPR3 29-461, limits assumed); test: ELISA, purified VHH
T3 construct: not shown: His tag
T3 sequence (looked up): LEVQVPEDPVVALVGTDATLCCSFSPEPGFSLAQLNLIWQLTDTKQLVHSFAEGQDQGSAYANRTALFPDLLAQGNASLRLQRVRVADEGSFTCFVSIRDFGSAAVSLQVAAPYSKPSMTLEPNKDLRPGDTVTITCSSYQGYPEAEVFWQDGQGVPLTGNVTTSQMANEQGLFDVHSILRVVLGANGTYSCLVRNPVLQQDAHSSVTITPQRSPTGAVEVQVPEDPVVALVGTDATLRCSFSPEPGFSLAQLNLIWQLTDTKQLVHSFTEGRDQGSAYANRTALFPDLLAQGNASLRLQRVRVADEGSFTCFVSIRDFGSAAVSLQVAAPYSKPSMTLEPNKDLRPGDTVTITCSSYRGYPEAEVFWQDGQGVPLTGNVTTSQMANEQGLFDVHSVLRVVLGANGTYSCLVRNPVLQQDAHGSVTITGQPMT
How it was run: as §2

[6] = target: T4, rat B7H3-His (rat, UniProt Q7TPB4 29-244, limits assumed); test: ELISA, purified VHH
T4 construct: not shown: His tag
T4 sequence (looked up): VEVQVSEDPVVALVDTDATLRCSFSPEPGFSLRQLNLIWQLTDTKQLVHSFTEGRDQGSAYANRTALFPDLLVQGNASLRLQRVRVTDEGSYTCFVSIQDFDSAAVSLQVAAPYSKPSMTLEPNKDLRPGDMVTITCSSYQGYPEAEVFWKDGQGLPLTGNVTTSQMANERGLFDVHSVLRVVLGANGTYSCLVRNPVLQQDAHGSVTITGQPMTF
How it was run: as §2

[7] = target: Non-relevant antigen; test: ELISA, purified VHH
How it was run: as §2

[8] = target: T2, monkey B7H3-His; test: phage ELISA, cross-species
How it was run: as §1

[9] = target: T4, rat B7H3-His; test: phage ELISA, cross-species
How it was run: as §1

[10] = target: T5, mouse B7H3-His (mouse, UniProt Q8VE98 29-244, limits assumed); test: phage ELISA, cross-species
T5 construct: also called recombinant mouse B7H3-His protein; not shown: His tag
T5 sequence (looked up): T4 sequence (looked up) with R33A, A62S, D131N, L156V, M214L
How it was run: as §1

[11] = target: T6, human B7H3 (human, UniProt Q5ZPR3 29-466, limits assumed); test: phage ELISA, cross-species
T6 construct: also called human B7H3 protein
T6 sequence (looked up): T1 sequence (looked up)
How it was run: as §1

[12] = target: Non-relevant antigen; test: phage ELISA, cross-species
How it was run: as §1

[13] = target: PD-L1; test: ELISA, purified VHH, cross-reaction
[14] = target: T7, B7H3 (CD276) on MC38-CD276+ cells; test: flow cytometry on MC38-CD276+ cells, VHH at 2 ug/ml
T7 construct: whole, on cells; MC38-CD276KO cells served as the negative control; also called MC38-B7H3+
T7 sequence (Q5ZPR3 1-534, species assumed, looked up): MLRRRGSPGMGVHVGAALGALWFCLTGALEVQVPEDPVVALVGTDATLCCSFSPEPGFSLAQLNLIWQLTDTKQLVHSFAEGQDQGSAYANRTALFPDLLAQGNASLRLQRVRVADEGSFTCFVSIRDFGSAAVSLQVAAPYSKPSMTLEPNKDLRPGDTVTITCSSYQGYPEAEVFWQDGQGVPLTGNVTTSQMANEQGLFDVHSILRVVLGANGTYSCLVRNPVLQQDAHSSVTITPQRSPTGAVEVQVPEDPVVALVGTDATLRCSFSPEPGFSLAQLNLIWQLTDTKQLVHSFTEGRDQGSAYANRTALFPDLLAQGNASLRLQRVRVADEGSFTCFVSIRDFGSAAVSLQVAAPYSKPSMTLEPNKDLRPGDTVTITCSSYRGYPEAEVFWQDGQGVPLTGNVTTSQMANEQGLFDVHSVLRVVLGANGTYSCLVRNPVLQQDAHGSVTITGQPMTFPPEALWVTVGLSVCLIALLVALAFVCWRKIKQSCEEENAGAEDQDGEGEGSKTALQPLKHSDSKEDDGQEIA

[15] = target: T7, B7H3 (CD276) on MC38-CD276+ cells; test: flow cytometry on MC38-CD276+ cells, VHH at 10 ug/ml
[16] = target: T7, B7H3 (CD276) on MC38-CD276+ cells; test: flow cytometry on MC38-CD276+ cells, VHH at 50 ug/ml
[17] = target: T7, B7H3 (CD276) on MC38-CD276+ cells; test: flow cytometry on MC38-CD276+ cells, VHH at 0.5 ug/ml
[18] = target: T8, B7H3-hFc (human, UniProt Q5ZPR3 29-456); test: ELISA, B7H3-hFc coated, VH-His-FLAG detected with anti-FLAG-HRP
T8 construct: also called recombinant B7H3-hFc; B7H3 ECD fused with human IgG1 Fc; not shown: human IgG1 Fc
T8 sequence: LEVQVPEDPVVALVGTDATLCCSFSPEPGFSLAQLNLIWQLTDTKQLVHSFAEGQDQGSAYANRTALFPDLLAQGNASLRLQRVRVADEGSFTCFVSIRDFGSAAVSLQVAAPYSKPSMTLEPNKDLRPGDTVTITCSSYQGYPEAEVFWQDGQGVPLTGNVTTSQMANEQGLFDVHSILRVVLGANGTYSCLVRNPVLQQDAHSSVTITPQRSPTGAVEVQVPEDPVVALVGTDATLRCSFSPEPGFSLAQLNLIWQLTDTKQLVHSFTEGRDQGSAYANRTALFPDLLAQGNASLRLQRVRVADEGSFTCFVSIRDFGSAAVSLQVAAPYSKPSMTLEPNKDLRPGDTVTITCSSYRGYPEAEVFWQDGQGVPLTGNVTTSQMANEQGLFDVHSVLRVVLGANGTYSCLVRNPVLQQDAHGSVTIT
Excerpt: FIGS. 4A-4C: Binding properties of the B7H3 binders. (FIG. 4A) SDS-PAGE analysis of the purified A1 and B1 binders (VH-His-FLAG fusion) from E. coli. Two micrograms of purified B7H3-hFc, non-reduced (Non.) or reduced (Red.) by β-mercaptoethanol, were separated on an 8% SDS-PAGE gel. Protein bands were visualized by Coomassie blue R-250 staining. (FIG. 4B) Protein binding affinity measurement by ELISA. Five micrograms of B7H3-hFc were coated on the ELISA plate, and different concentrations of domain antibodies were incubated with the plate, and binding was detected by HRP conjugated anti-FLAG mouse monoclonal antibody M2. The binding curves were plotted using the software GraphPad Prism and the calculated EC50 values were determined by the software's algorithm of hyperbola one site binding. (FIG. 4C) Cell binding determination by flow cytometry. Ten microgram per mL domain antibody was co-incubated with one million cells. Antibody binding was visualized by APC conjugated anti-FLAG monoclonal antibody. The curves labelled “1” represent cells stained with secondary antibody only; the curves labelled “2” represent cells stained with A1 or B1 domain antibody.
The VH coding sequences of binders A1 and B1 were fused with His-FLAG tag at their C-termini and cloned into an E. coli expression vector. […] The purified yield was 2 mg/L (A1) and 10 mg/L fermentation (B1) respectively. […]

Sequence of PD-L1 (Q9NZQ7 whole entry): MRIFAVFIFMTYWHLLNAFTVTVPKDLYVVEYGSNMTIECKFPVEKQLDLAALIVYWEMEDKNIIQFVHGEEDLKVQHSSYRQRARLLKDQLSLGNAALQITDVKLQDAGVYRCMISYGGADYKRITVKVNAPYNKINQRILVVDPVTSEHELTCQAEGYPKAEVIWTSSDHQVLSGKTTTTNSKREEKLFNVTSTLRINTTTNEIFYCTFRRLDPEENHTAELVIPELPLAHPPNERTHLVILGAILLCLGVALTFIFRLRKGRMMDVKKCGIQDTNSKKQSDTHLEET

Row | Binder | ELISA signal [1] | ELISA signal [2] | ELISA signal [3] | ELISA signal [4] | ELISA signal [5] | ELISA signal [6] | ELISA signal [7] | ELISA signal [8] | ELISA signal [9] | ELISA signal [10] | ELISA signal [11] | ELISA signal [12] | ELISA signal [13] | Positive rates [14] [%] | Positive rates [15] [%] | Positive rates [16] [%] | Positive rates [17] [%] | EC50 [18] [nM]
1 | B1 | 2.75 | 0.136 | 1.3 | 2.59 | 2.65 | 0.134 | 0.131 | 0.0706 | 0.0951 | 0.0738 | 2.03 | 0.0608 | 0.0753 | – | – | – | – | –
2 | B2 | – | – | 0.0979 | – | – | – | – | 2.22 | – | – | – | – | – | – | – | – | – | –
3 | B3 | 2.42 | 0.0888 | – | 2.34 | – | – | – | 0.228 | 0.738 | 0.0759 | 2.14 | 0.0654 | 0.0454 | – | – | – | – | –
4 | B4 | 2.5 | 0.0685 | – | 2.37 | – | – | – | 0.267 | 0.871 | 0.0819 | 2.13 | 0.0583 | 0.0471 | 1.44 | 44.9 | 88.9 | 0.19 | –
5 | B5 | 2.43 | 0.0788 | – | 0.499 | – | – | – | 0.237 | 0.778 | 0.0782 | 2.21 | 0.113 | 0.0438 | – | – | – | – | –
6 | B6 | – | – | – | – | – | – | – | – | – | – | – | – | – | – | – | – | – | 403
